In test [1] the test system is Anti-ANGPTL3 polyclonal antibody (ABC83, Sigma). Nature of the test: Affinity determination of peptides with anti-ANGPTL3 antibody by surface plasmon resonance (Biacore T200). In kind it is binding. The conditions noted are these: SPR, peptide 1 mM in 1×PBS over immobilized anti-ANGPTL3 pAb, 25° C., response 5 s before end of injection. The method, then:
Affinity of novel peptides of the present invention with anti-ANGPTL3 antibody ‘ANG’ was analysed by surface plasmon resonance (SPR), using a Biacore instrument (Biacore T200, GE Healthcare). SPR experiments were performed at […] with a BIACORE T200 apparatus (GE Healthcare, Uppsala, Sweden).
Surface Preparation: (Procedure for Antibody immobilization) Series S Sensor Chip CM5 surface was activated by a 7-min injection of EDC-NHS. Anti-ANGPTL3 polyclonal antibody (ABC83, Sigma), diluted to 4.5 μg/mL in 10 mM acetate buffer (pH 4.0), was immobilized on one of the four flow cells of a Series S Sensor Chip CM5 with the aim of 10000 RU (resonance units) using amine-coupling. The surface was blocked with 1M ethanolamine (pH 8.5). One flow cell was immobilized as blank for reference subtraction (without antibody). 1×PBS was used as running buffer.
Binding experiments: 1 mM stock of novel peptides of the present invention were made in 1×PBS and binding studies were conducted by passing over blank as well as ligand (anti-ANGPTL3 pAb) immobilized surface. Each cycle consisted of 120 s analyte (novel peptides of the present invention) injection at a flow rate of 10 μL/min (the association phase), followed by a dissociation phase of 300 s. Purified human recombinant ANGPTL3 (FLAG-tag, 91009-1, bps bioscience) was used as positive control (1 μM) and was analyzed under identical condition. Complete dissociation of ANGPTL3 and anti-ANGPTL3 antibody interaction was achieved by regenerating surface with 10 mM glycine/HCl (pH 2.0) for 40 s at a flow rate of 10 μl/min injection.
Data Analysis: The data was analyzed using the Biacore T200 Evaluation software. All the curves were initially reference-subtracted (from blank immobilized surface) and then subtracted from zero analyte concentration. Baselines were adjusted to zero for all curves and data was presented as Relative response or binding RU (Average of 5 s window) 5 s before end of sample injection.
Affinity of novel peptides of vaccine with ANGPTL3 antibody ANG were analysed by surface plasmon resonance (SPR), using a Biacore instrument (Biacore T200, GE Healthcare). SPR experiments were performed at 25° C. with a BIACORE T200 apparatus (GE Healthcare, Uppsala, Sweden).

The target of a further test is T1, ANGPTL3 (Homo sapiens, UniProt Q9Y5C1).
T1 construct: In humans, Evinacumab (a therapeutic mAb developed against ANGPTL3) caused a dose-dependent reduction; host or cells: human subjects (circulating endogenous protein)
T1 sequence (Q9Y5C1 17-460): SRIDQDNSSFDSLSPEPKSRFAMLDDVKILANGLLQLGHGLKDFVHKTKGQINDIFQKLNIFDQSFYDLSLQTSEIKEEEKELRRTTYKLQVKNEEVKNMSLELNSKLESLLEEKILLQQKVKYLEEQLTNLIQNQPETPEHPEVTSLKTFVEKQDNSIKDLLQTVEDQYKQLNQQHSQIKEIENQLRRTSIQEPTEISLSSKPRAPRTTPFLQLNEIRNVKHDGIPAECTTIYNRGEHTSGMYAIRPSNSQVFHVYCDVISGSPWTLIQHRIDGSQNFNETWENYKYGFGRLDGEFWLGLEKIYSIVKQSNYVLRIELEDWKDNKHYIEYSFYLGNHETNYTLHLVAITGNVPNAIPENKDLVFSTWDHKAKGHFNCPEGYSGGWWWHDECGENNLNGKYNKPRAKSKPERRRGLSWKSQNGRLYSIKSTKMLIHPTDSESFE
The conditions noted are these: humans, dose-dependent; cited from earlier work.

Test [2] addresses Anti-ANGPTL3 polyclonal antibody (ABC83, Sigma). The test can be described thus: SPR (Biacore T200), antibody immobilised on CM5, peptide as analyte at 1 mM.

Square brackets hold non-standard residues; d marks the D form. Ends that are not written are not given here. APPA = 2-aminophenyl pentanoic acid; hArg = N=C(N)NCCCC[C@H](N)C(=O)O; Cit = NC(=O)NCCC[C@H](N)C(=O)O; Nle = CCCC[C@H](N)C(=O)O; Aib = CC(C)(N)C(=O)O

On to “1 (RFAMLDDVKILANGLLQLGHGLKDFVHKTKGQI; artificial ANGPTL3 peptide) [compound 1]”, for which the Relative response in test [1] is given as 4832.6 RU.
The same measure, in the same setting: the figure for “2 (R[APPA]AMLDDVKILANGLLQLGHGLKDFVHKTKGQI) [compound 2]” is 5674 RU; for “5 (CRFAM[Nle]DDVKILANGLLQLGHGLKDFVHKTKGQI) [compound 5]” it is 5850 RU; for “6 (RFAMLDDV[Cit]ILANGLLQLGHGLKDFVHKTKGQI) [compound 6]” it is 6084.1 RU.
Still for that read-out and setting: the figure for “49 (CRFAMLDDVKILANGLLQLGHGLKDFVHKTKGQI; artificial ANGPTL3 peptide) [compound 49]” is 5464.1 RU.
Still for that read-out and setting: the figure for “78 (RF[Aib]MLDDVKILANGLLQLGHGLKDFVHKTKGQI) [compound 78]” is 5539.6 RU; for “79 ([Cit]FAMLDDV[Cit]ILANGLLQLGHGLKDFVHKTKGQI) [compound 79]” it is 6152.5 RU.
Turning to “80 ([hArg]FAMLDDVKILANGLLQLGHGLKDFVHKTKGQI) [compound 80]”, the Relative response in test [1] is 5308.2 RU.
The same measure, in the same setting: the figure for “82 (C[Cit]FAMLDDV[Cit]ILANGLLQLGHGLKDFVHKTKGQI) [compound 82]” is 5518.3 RU.
On the same count and under the same terms, the figure for “83 (C[hArg]FAMLDDVKILANGLLQLGHGLKDFVHKTKGQI) [compound 83]” is 5895.2 RU.
In the case of “84 (CRF[Aib]MLDDVKILANGLLQLGHGLKDFVHKTKGQI) [compound 84]”, in test [1], the Relative response stood at 5813.7 RU.
Still for that read-out and setting: the figure for “85 (C[Cit]FAMLDDVLILANGLLQLGHGLKDFVHKTKGQI) [compound 85]” is 4924.7 RU.
For the molecule “86 (CR[APPA]AMLDDVKILANGLLQLGHGLKDFVHKTKGQI) [compound 86]”, the Relative response in test [1] turned out to be 5130.1 RU.
Still for that read-out and setting: the figure for “87 (CRFAMLDDV[Cit]ILANGLLQLGHGLKDFVHKTKGQI) [compound 87]” is 5820.9 RU.
Regarding Evinacumab, in the test with ANGPTL3, the “reduction in LDL cholesterol levels” value was “up to 23%” and the “reduction in fasting triglyceride levels” value was “up to 76%”.
With [Cit]FAMLDDV[Cit]ILANGLLQLGHGLKDFVHKTKGQI [Peptide of SEQ ID NO. 79 (Cit-FAMLDDV-Cit-…)], the Relative response in test [2] worked out at 6150 RU.
The same measure, in the same setting: the figure for CR[APPA]AMLDDVKILANGLLQLGHGLKDFVHKTKGQI [Peptide of SEQ ID NO. 86 (C-R-APPA-…)] is 5130 RU; for [hArg]FAMLDDVKILANGLLQLGHGLKDFVHKTKGQI [Peptide of SEQ ID NO. 80 (Har-…)] it is 5310 RU.
On to R[APPA]AMLDDVKILANGLLQLGHGLKDFVHKTKGQI [Peptide of SEQ ID NO. 2 (R-APPA-…)], for which the Relative response in test [2] is 5670 RU.
Same read-out and setting: the figure for C[Cit]FAMLDDVLILANGLLQLGHGLKDFVHKTKGQI [Peptide of SEQ ID NO. 85 (C-Cit-…)] is 4920 RU.
CRFAMLDDV[Cit]ILANGLLQLGHGLKDFVHKTKGQI [Peptide of SEQ ID NO. 87 (C-RFAMLDDV-Cit-…)] returned a Relative response in test [2] of 5820 RU.
CRFAMLDDVKILANGLLQLGHGLKDFVHKTKGQI [Peptide of SEQ ID NO. 49 (…)] came in with a Relative response in test [2] of 5460 RU.
Still for that read-out and setting: the figure for RFAMLDDV[Cit]ILANGLLQLGHGLKDFVHKTKGQI [Peptide of SEQ ID NO. 6 (RFAMLDDV-Cit-…)] is 6080 RU.
CRFAM[Nle]DDVKILANGLLQLGHGLKDFVHKTKGQI [Peptide of SEQ ID NO. 5 (CRFAM-Nle-…)] registered a Relative response in test [2] of 5850 RU.
Same read-out and setting: the figure for CRF[Aib]MLDDVKILANGLLQLGHGLKDFVHKTKGQI [Peptide of SEQ ID NO. 84 (C-RF-Aib-…)] is 5810 RU.
Still for that read-out and setting: the figure for RFAMLDDVKILANGLLQLGHGLKDFVHKTKGQI [Peptide of SEQ ID NO. 1 (…)] is 4830 RU; for C[hArg]FAMLDDVKILANGLLQLGHGLKDFVHKTKGQI [Peptide of SEQ ID NO. 83 (C-Har-…)] it is 5900 RU.
Same read-out and setting: the figure for C[Cit]FAMLDDV[Cit]ILANGLLQLGHGLKDFVHKTKGQI [Peptide of SEQ ID NO. 82 (C-Cit-FAMLDDV-Cit-…)] is 5520 RU; for RF[Aib]MLDDVKILANGLLQLGHGLKDFVHKTKGQI [Peptide of SEQ ID NO. 78 (RF-Aib-…)] it is 5540 RU.

The values are drawn from patent US20220380425A1, “ANGPTL3 BASED VACCINE FOR THE TREATMENT OF LIVER DISEASE” (CADILA HEALTHCARE LIMITED, priority 2019, published 2022).
